Measured values from patent US20250026849A1 (ARCELLX, published 2025).

T1: BCMA (Homo sapiens (Human), UniProt Q02223 1-54, limits assumed)
T1 sequence: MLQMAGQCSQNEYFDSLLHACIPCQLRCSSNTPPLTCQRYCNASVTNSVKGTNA


Molecular target: T1, BCMA
Assay: ELISA, format not described
Parameters: unit not given here

ELISA_avg | Binder
17.1 | D-domain SEQ ID NO: 232 (designed binder) MGSWGEFKHRLALIKWYLEALGGSEAELAHFEDWIAVFEVQLQNYKGKGNPEVEALRKEAAAIRDELQAYRHN
13 | D-domain SEQ ID NO: 238 (designed binder) MGSWDAFKHRLALIKWYLEALGGSEAELAHFEEYIAEFESNLQSYKGKGNPEVEALRKEAAAIRDELQAYRHN
16.4 | D-domain SEQ ID NO: 237 (designed binder) MGSWYNFKHRLAIIKWFLEALGGSEAELAVFEVWIADFEHQLQEYKGKGNPEVEALRKEAAAIRDELQAYRHN
5.5 | D-domain SEQ ID NO: 233 (designed binder) MGSWYEFKHRLAIIKWYLEALGGSEAELAKFEAWIAEFEMILQRYKGKGNPEVEALRKEAAAIRDELQAYRHN
10.4 | D-domain SEQ ID NO: 236 (designed binder) MGSWFQFKHRLAIIKWQLEALGGSEAELAWFEQWIADFEHQLQHYKGKGNPEVEALRKEAAAIRDELQAYRHN
14.8 | D-domain SEQ ID NO: 234 (designed binder) MGSWYEFKHRLAIIKWYLEALGGSEAELAHFEQYIADFEGTLQKYKGKGNPEVEALRKEAAAIRDELQAYRHN
16.5 | D-domain SEQ ID NO: 240 (designed binder) MGSWNGFKHRLAIIKWYLEALGGSEAELASFESYIAEFESGLQEYKGKGNPEVEALRKEAAAIRDELQAYRHN
6.76 | D-domain SEQ ID NO: 235 (designed binder) MGSWYNFKHRLAIIKWYLEALGGSEAELARFENFIANFETQLQLYKGKGNPEVEALRKEAAAIRDELQAYRHN
23.6 | D-domain SEQ ID NO: 239 (designed binder) MGSWDGFKHRLALIKWYLEALGGSEAELANFENWIAEFEQRLQYYKGKGNPEVEALRKEAAAIRDELQAYRHN
10.3 | D-domain SEQ ID NO: 241 (designed binder) MGSWNSFKHRLALIKWYLEALGGSEAELATFEWYIASFESELQQYKGKGNPEVEALRKEAAAIRDELQAYRHN
9.05 | D-domain SEQ ID NO: 244 (designed binder) MGSWYGFKYRLAVIKWYLEALGGSEAELASFEKYIAHFEHDLQAYKGKGNPEVEALRKEAAAIRDELQAYRHN
5.99 | D-domain SEQ ID NO: 251 (designed binder) MGSWHGFKYRLAVIKWYLEALGGSEAELAMFEGWIAQFEITLQQYKGKGNPEVEALRKEAAAIRDELQAYRHN
13 | D-domain SEQ ID NO: 242 (designed binder) MGSWSDFKYRLAVIKFYLEALGGSEAELASFESFIAHFEDDLQKYKGKGNPEVEALRKEAAAIRDELQAYRHN
7.63 | D-domain SEQ ID NO: 245 (designed binder) MGSWYGFKYRLAVIKWYLEALGGSEAELASFEKYIAQFEHDLQAYKGKGNPEVEALRKEAAAIRDELQAYRHN
13 | D-domain SEQ ID NO: 246 (designed binder) MGSWYGFKYRLALIKWYLEALGGSEAELASFETYIADFEDLLQAYKGKGNPEVEALRKEAAAIRDELQAYRHN
11.7 | D-domain SEQ ID NO: 247 (designed binder) MGSWSTFKYHLAVIKWYLEALGGSEAELASFEDYIAQFETDLQEYKGKGNPEVEALRKEAAAIRDELQAYRHN
13.1 | D-domain SEQ ID NO: 243 (designed binder) MGSWSGFKYRLAVIKFYLEALGGSEAELASFELFIAKFEIDLQNYKGKGNPEVEALRKEAAAIRDELQAYRHN
7.75 | D-domain SEQ ID NO: 252 (designed binder) MGSWQGFKYRLAVIKWMLEALGGSEAELAFFENWIAEFETKLQQYKGKGNPEVEALRKEAAAIRDELQAYRHN
